Consider three substances from article PMC11091212.

For test [1], the target named is Microfibril-associated glycoprotein 4 (human) (UniProt P55083). The test can be described thus: SPR; Ca2+ form (octamer): MFAP4 or MFAP4_(C34S) amine-coupled on CM5 (Biacore X), elastogenic proteins as analytes 5-100 µg/mL in TBS/Ca2+ (2 mM CaCl2); 1:1 Langmuir fit, KD is the average over five concentrations. (In SPR one partner is held on a chip, and binding of the other changes the refractive index at the surface.)

Test [2] has the same target. Put plainly: SPR; Ca2+. Conditions: domain or fragment.

Chain of Microfibril-associated glycoprotein 4 (human) (P55083 22-255): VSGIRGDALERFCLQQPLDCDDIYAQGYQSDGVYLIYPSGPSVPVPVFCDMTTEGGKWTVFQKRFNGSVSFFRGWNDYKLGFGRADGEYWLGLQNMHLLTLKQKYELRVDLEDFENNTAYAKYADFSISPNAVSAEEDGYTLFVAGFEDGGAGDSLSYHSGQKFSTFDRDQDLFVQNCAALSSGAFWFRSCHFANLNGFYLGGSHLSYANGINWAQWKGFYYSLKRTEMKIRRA

Broadly, the Kd is the equilibrium constant for the complex coming apart. A high value points to a looser complex. Regarding “latent transforming growth factor beta binding protein-4, short isoform (natural protein)”, in test [1], the Kd was determined as 0.015 µM. That is a double-digit nanomolar value.
The same measure, in the same setting: to “recombinant N-terminal half of fibrillin-1 (domain or fragment)” belongs 0.0018 µM.
In test [2], N-terminal half of LTBP4S had a Kd of 0.016 µM.
